Results: the supplement of paper PMC9233669
Fewer inactive variants are shown than the library holds.

Experiments:
[1] = system: biotinyl-Leu-oxazolone; test: self-aminoacylation, catalytic enhancement (BLO) (fold over background); higher = more active; k-Seq, kA / k0A0; sequences stand for … in GGGAAUGGAUCCACAUCUACGAAUUC…UUCACUGCAGACUUGACGAAGCUG
Outline: (§1)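 Mutagenized RNA pools with a 21-nt variable region (0.43 μM) reacted with each biotinyl-aminoacyl-oxazolone at 2–1250 μM. Reactions ran in 50 μL HEPES/NaCl/KCl/MgCl2/CaCl2 buffer with 5% acetonitrile, pH 6.9–7.0, for 90 minutes at room temperature. Streptavidin-captured RNA was quantified by triplicate qPCR and Illumina sequencing, and per-sequence fraction reacted was fit to a pseudo-first-order model with 1000 bootstraps. Catalytic enhancement is median kA divided by the uncatalyzed rate, the low-activity peak of a bimodal Gaussian fit.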

[2] = system: biotinyl-Trp-oxazolone; test: self-aminoacylation, catalytic enhancement (BWO) (fold over background); higher = more active; k-Seq, kA / k0A0; sequences stand for … in GGGAAUGGAUCCACAUCUACGAAUUC…UUCACUGCAGACUUGACGAAGCUG
Outline: as §1

[3] = system: biotinyl-Val-oxazolone; test: self-aminoacylation, catalytic enhancement (BVO) (fold over background); higher = more active; k-Seq, kA / k0A0; sequences stand for … in GGGAAUGGAUCCACAUCUACGAAUUC…UUCACUGCAGACUUGACGAAGCUG
Outline: as §1

[4] = system: biotinyl-Phe-oxazolone; test: self-aminoacylation, catalytic enhancement (BFO) (fold over background); higher = more active; k-Seq, kA / k0A0; sequences stand for … in GGGAAUGGAUCCACAUCUACGAAUUC…UUCACUGCAGACUUGACGAAGCUG
Outline: as §1

[5] = system: biotinyl-Met-oxazolone; test: self-aminoacylation, catalytic enhancement (BMO) (fold over background); higher = more active; k-Seq, kA / k0A0; sequences stand for … in GGGAAUGGAUCCACAUCUACGAAUUC…UUCACUGCAGACUUGACGAAGCUG
Outline: as §1

[6] = system: biotinyl-Ile-oxazolone; test: self-aminoacylation, catalytic enhancement (BIO) (fold over background); higher = more active; k-Seq, kA / k0A0; sequences stand for … in GGGAAUGGAUCCACAUCUACGAAUUC…UUCACUGCAGACUUGACGAAGCUG
Outline: as §1

Sequence | self-aminoacylation [1] | self-aminoacylation [2] | self-aminoacylation [3] | self-aminoacylation [4] | self-aminoacylation [5] | self-aminoacylation [6]
AUUCACCUCGGUCAUCGGGAG [Fam2.2 aminoacylation ribozyme variant] | 1.63 | 1.17 | 1.22 | 0.478 | 1.39 | 1.02
AUUCACCUCGGUCAUCGGGUU [Fam2.2 aminoacylation ribozyme variant] | 2.47 | 2.53 | 2.41 | 13.3 | 2.44 | 2.15
AUUCACCUCGGUCAUCGGUUG [Fam2.2 aminoacylation ribozyme variant] | 1.25 | 0.911 | 1.07 | 5.88 | 1.07 | 0.923
AUUCACCUCGGUCUUCGGGUG [Fam2.2 aminoacylation ribozyme variant] | 6.72 | 4.87 | 4.01 | 33 | 3.71 | 3.77
AUUCACCUGGAUCAUCGGGUG [Fam2.2 aminoacylation ribozyme variant] | 3.12 | 3.31 | 3.08 | 15.1 | 2.39 | 2.55
AUUCACCUGGGUAAUCGGGUG [Fam2.2 aminoacylation ribozyme variant] | 5.16 | 4.84 | 2.88 | 30.1 | 4.71 | 3.15
AUUCACCUGGGUCAUCCGGUG [Fam2.2 aminoacylation ribozyme variant] | 13.3 | 9.13 | 7.4 | 75.6 | 11.2 | 7.06
AUUCACCUGGGUCAUCGGGAG [Fam2.2 aminoacylation ribozyme variant] | 1.51 | 2.29 | 1.62 | 7.65 | 1.86 | 1.65
AUUCACCUUGAUCAUCGGGUG [Fam2.2 aminoacylation ribozyme variant] | 3.83 | 4.07 | 2.6 | 19 | 3.26 | 2.22
AUUCACCUUGGACAUCGGGUG [Fam2.2 aminoacylation ribozyme variant] | 3.37 | 2.97 | 3.24 | 17.1 | 3.51 | 2.51
AUUCACCUUGGCCAUCGGGUG [Fam2.2 aminoacylation ribozyme variant] | 4.98 | 4.95 | 3.88 | 31.6 | 4.02 | 2.9
AUUCACCUUGGUCAUCGAGUG [Fam2.2 aminoacylation ribozyme variant] | 4.66 | 3.59 | 2.49 | 8.55 | 3.96 | 2.69
AUUCACGUAGCUCAUCGGGUG [Fam2.2 aminoacylation ribozyme variant] | 2.42 | 2.88 | 3.52 | 17.7 | 3.44 | 2.24
AUUCACGUAGGUCAUAGGGUG [Fam2.2 aminoacylation ribozyme variant] | 2.36 | 1.97 | 1.92 | 2.23 | 2.17 | 1.67
AUUCACGUAGGUCAUCGCGUG [Fam2.2 aminoacylation ribozyme variant] | 15.8 | 11.1 | 9.95 | 119 | 16 | 7.52
AUUCACGUAGGUCAUCGGGUA [Fam2.2 aminoacylation ribozyme variant] | 2.95 | 3.66 | 3.72 | 21 | 3.16 | 2.9
AUUCACGUAGGUCAUCGGGUU [Fam2.2 aminoacylation ribozyme variant] | 2.54 | 2.93 | 2.74 | 14.9 | 2.4 | 2.03
AUUCACGUAGGUCAUCUGGUG [Fam2.2 aminoacylation ribozyme variant] | 5.52 | 4.82 | 3.61 | 31.2 | 5.3 | 3.05
AUUCACUAAGGUCAUCGGGUG [Fam2.2 aminoacylation ribozyme variant] | 6.72 | 5.99 | 3.66 | 37.7 | 5.33 | 3.57
AUUCACUGAGGUCAUCGGGUG [Fam2.2 aminoacylation ribozyme variant] | 9.09 | 5.64 | 4.37 | 55.7 | 7.22 | 4.51
AUUCACUUAGGUCAACGGGUG [Fam2.2 aminoacylation ribozyme variant] | 4.92 | 3.53 | 2.26 | 21.2 | 3.84 | 2.52
AUUCACUUAGGUCAUCUGGUG [Fam2.2 aminoacylation ribozyme variant] | 3.65 | 3.19 | 2.1 | 12.6 | 3.11 | 2.06
AUUCACUUAGGUCAUGGGGUG [Fam2.2 aminoacylation ribozyme variant] | 7.09 | 5.74 | 3.31 | 46.2 | 5.58 | 3.61
AUUCACUUAGGUCAUUGGGUG [Fam2.2 aminoacylation ribozyme variant] | 4.48 | 3.76 | 2.39 | 25.2 | 3.64 | 2.3
AUUCAGAUAGGUCAUCGGGUG [Fam2.2 aminoacylation ribozyme variant] | 7.3 | 5.8 | 3.77 | 49.6 | 6.75 | 4.19
AUUCAGCAAGGUCAUCGGGUG [Fam2.2 aminoacylation ribozyme variant] | 7.63 | 7 | 4.9 | 47.9 | 6.23 | 4.51
